Test: yeast display, Sf9 membrane polyspecificity reagent, FACS + sequencing; frameworks hold sequencing errors
Procedure, shortened: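 Polyreactivity labels are assigned by the sorting gate from which each nanobody was recovered. The gates were low and high (top ~1%), set on anti-HA fluorescence for expression and streptavidin fluorescence for reagent binding. Before sorting, galactose-induced (36–48 hours) yeast display cells were stained for 1 hour at 4 °C with 10% biotinylated, detergent-solubilized Sf9 membrane reagent.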

Sequence | polyreactivity (PSR sort gate)
QVQLVESGGGLVQAGGSLRLSCAASGITFGPYAMGWYRQAPGKERELVAAISYSGGRTYYADSVKGRFTISRDNAKNTVYLQMNSLKPEDTAVYFCARRYGYFGYEYDYWGQGTQVTVSS | high polyreactivity
QVQLVESGGGLVQAGGSLRLSCAASGITFGRHTMGWYRQAPGKERELVAAIDSGGNTYADSVKGRFTISRDNAKNTVYLQMNSLKPEDTAVYYCAVDGGEFSSYGYWGQGTQVTVSS | low polyreactivity
QVQLVESGGGLVQAGGSLRLSCAASGITFGRNAMGWYRQAPGKERELVAAISRGGSTNYADSVKGRFTISRDNAKNTVYLQMNSLKPEDTAVYYGNARSWPHGSWIPIHRRSGYWGQGTQVTVSS | high polyreactivity
QVQLVESGGGLVQAGGSLRLSCAASGITFGRNTMGWYRQAPGKERELVAAIDSGGNTYADSVKGRFTISRDNAKNTVYLQMNSLKPEDTAVYYCAVDGGEFSSSGYWGQGTQVPVSS | low polyreactivity
QVQLVESGGGLVQAGGSLRLSCAASGITFGRNTMGWYRQAPGKERELVAAIDSGGNTYADSVKGRFTISRDNEKNTVYLQMNSLKPEDTAVYYCAVDCGEFSSYGYWGQGTQVTVSS | low polyreactivity
QVQLVESGGGLVQAGGSLRLSCAASGITFGRYAMGWYRQAPGKERELVAAITWSGGSTYYADSVKGRFTISRDNSKNTVYLQMNSLKPEDTAVYYCAATWYPGRAGYYYWGQGTQVTVSS | high polyreactivity
QVQLVESGGGLVQAGGSLRLSCAASGITFGSYAMGRYRQAPGKERELVAAIDTSGDDTYYADSVKGRFTISRDNAKNTVYLQMNSLKPEDTAVYYCAAEFPSAEVDYWGQGTQVTVSS | low polyreactivity
QVQLVESGGGLVQAGGSLRLSCAASGITFGSYAMGWYRQAPGKEREFVAAISLSGGNTYYADSEKGRFTISRDNAKNPVYLQMNSLKPEDTAVYYCAADPFSSYYKMEYWGQGTQVTVSS | high polyreactivity
QVQLVESGGGLVQAGGSLRLSCAASGITFGSYDMGWYRQAPGKERELVAAIDSDGGTYYADSVKGRFTISRDNAKNTVYLQMNSLKPEDTAVYYCAALLRSFPPYSFYYWGQGTQVTVSS | high polyreactivity
QVQLVESGGGLVQAGGSLRLSCAASGITFGTYTMGWYRQAPGKERELVAAISRSGTGTYYADSVKGRFTISRDNAKNTVYLQMNSLKPEDTAVYYCAAAGYIYYGYEYLYGFEYWGQGTQVTVSS | high polyreactivity
QVQLVESGGGLVQAGGSLRLSCAASGITFGVYAMGWYRQAPGKERELVAAISSGDSTYYADSVKGRFTISRDNAKNTVYLQMNSLKPEDTAVYYCNAYYGVFYWDAEYGYDYWGQGTQVTVSS | high polyreactivity
QVQLVESGGGLVQAGGSLRLSCAASGITFGWYAMGWYRQAPGKERELVAAISGRGGRTYYADSVKGRFKISRDNAKNTVYLQMNSLKPEDTAVYYCAARARRWSYITGSYVLIEYEYWGQGTQVTVSS | high polyreactivity
QVQLVESGGGLVQAGGSLRLSCAASGITFGWYAMGWYRQAPGKERELVAAISGRGGRTYYADSVKGRFTISRDNAKYTVYLQMNSLKPEVTAVYYCAARARRWSYITGSYVLIEYEYWGQGTQVTVSS | high polyreactivity
QVQLVESGGGLVQAGGSLRLSCAASGITFGYNAMGWYRQAPGKERELVASISYSGDSTYYADSVKGRFTISRDNAKNTVYLQMNSLKPEDTAVYYCNVRNRPGGEINDYDYWGQGTQVTVSS | low polyreactivity
QVQLVESGGGLVQAGGSLRLSCAASGITFGYNAMGWYRQAPGTEREFVAGISWSGGSTYYADSVKGRFTISRDNAKNTVYLQMNSLKPEDTAVYYCAKLARGGWYGGGRSLSYGYWGQGTQVTVSS | high polyreactivity
QVQLVESGGGLVQAGGSLRLSCAASGITFGYYAMGWYRQAPGKEREMVAAISFTGASTYYADSVKGRFTISRDNAKNTVYLQMNSLKPEDTAVYYCAADPYVPYQDFLSGFDYWGQGTQVTVSS | low polyreactivity
QVQLVESGGGLVQAGGSLRLSCAASGITFGYYDMGWYRQAPGKERELVASISSGGNTNYADSVKGRFTISRDNAKNTVYLQMNSLKPEDTAVYYCNVRYWGFYDYDYWGQGTQVTVSS | low polyreactivity
QVQLVESGGGLVQAGGSLRLSCAASGITFHKYAMGWYRQAPGKERELVAAISSGGGTYYADSVKGRFTISRDNAKNTVYLQMNSLKPEDTAVYYCNADIEWLWVRYDYWGQGTQVTVSS | high polyreactivity
QVQLVESGGGLVQAGGSLRLSCAASGITFIGYPMGWYRQAPGKERELVASITSGANTNYADSVKGRFTISRDNAKNTVYLQMNSLKPEDTAVYYCAAPEHGTYANILGEPLDYWGQGTQVTVSS | low polyreactivity
QVQLVESGGGLVQAGGSLRLSCAASGITFIKNAMGWYRQAPGKERELVAAISRSGGRTYYADSVKGRFTISRDNAKNTVYLQMNSLKPEYTAVYYCAAVTQRSYIYDYWGQGTQVTVSS | high polyreactivity

Sequence | polyreactivity (PSR sort gate)
QVQLVESGGGLVQAGGSLRLSCAASGITFIRNGMGWYRQAPGKERELVAAISYTGARTYYADSVKGRFTISRDNAKNTVYLQMNSLKPEDNAVYYCAAEVRTRYLYSFRWYDYWGEGTQVTVSS | low polyreactivity
QVQLVESGGGLVQAGGSLRLSCAASGITFISYVMGWYRQAPWKERELLAAISKRGGSTYYADSVKGRFTISRDNAKNTVYLQMNSLKPEDTAVYYCAAKTIPWSVGYDYWGQGTQVTVSS | high polyreactivity
QVQLVESGGGLVQAGGSLRLSCAASGITFKFYAMGWYRQAPGKEREWVATISWSGGITYYADSVKGRFTISRDNAKNTVYLQMNSLKPEDTAVYYCAADGPFTPRYYYWGQGTQVTVSS | low polyreactivity
QVQLVESGGGLVQAGGSLRLSCAASGITFKGYTMGWYRQAPGKEREFVAAISWGGGRTYYADSVKGRFTISRDNAKNTVYLQMNSLKPEDTAVYYCNGAPYTRALQGEFDYWGQGTQVTVSS | high polyreactivity
QVQLVESGGGLVQAGGSLRLSCAASGITFKLNAMGWYRQAPGKERELVAAISYNGVRTYYADSVKGRFTISRDNAKNTVYLQMNRLKPEDTAVYYCAALLRGQDRTMDYWGQGTQVTVSS | high polyreactivity
QVQLVESGGGLVQAGGSLRLSCAASGITFKRYAMGWYRPAPGKERELVAAITISAGSTYYADSVKGRFTLSRDNAKNTVYLQMNSLKPEDTAVYYCAAESYGSWYYYWGQGTQVTVSS | high polyreactivity
QVQLVESGGGLVQAGGSLRLSCAASGITFKSYAMGWYRQAPGKERELVAAISRRGGSTYDADSVKGRFTISRDNAKNTVYLQMNSLKPEDTAVYYCNAAVGYYSYSYYTKVGVDYLGQGTQVTVSS | high polyreactivity
QVQLVESGGGLVQAGGSLRLSCAASGITFKYAMGWYRQAPGKERELVAAISGGGRTNYADSVKGRFTISRDNAKNTVYLQMNSLKPEDTAVYYCAAQGSRWWGFDYWGQGTQVTVSS | high polyreactivity
QVQLVESGGGLVQAGGSLRLSCAASGITFKYYAMGWYRQAPGKEREFVASISARGGGTYYADSVKGRFTISRDNAKNTVYLQMNSLKPEDTAVYYCAVDYRYGYFVYVHYEYWGQGTQVTVSS | high polyreactivity
QVQLVESGGGLVQAGGSLRLSCAASGITFLDYAMRWYRQAPGKERELVAAITKSVGSTYYADSVKGRFTISRDNAKNTVYLQMNSLKPEDTAVYYCAADPDSGQVPFDYWGQGTQVTVSS | low polyreactivity
QVQLVESGGGLVQAGGSLRLSCAASGITFLWNARGWYRQAPGKERELVAVISIGGSTYYADSVKGRFTISRDNAKNTVYLQMNSLKPEDTAVYYCAATEGPAYDYEYWGQGTQVTVSS | low polyreactivity
QVQLVESGGGLVQAGGSLRLSCAASGITFLYYAMGWYRQAPGQERELVAAITSSGGRTYYADSVKGRFTISRDNAKNTVYLQMNSLKPEDTAVYYCAADSRTYNGGYYWGQGTQVTVSS | high polyreactivity
QVQLVESGGGLVQAGGSLRLSCAASGITFMFYAMGWSRQAPGKVRELVAAISSSGGTTYYADSVKGRFTISRDNAKNTVYLQMNSLTPEDTAVYYCAARRVLASWYDYNYWGQGTQVTVSS | high polyreactivity
QVQLVESGGGLVQAGGSLRLSCAASGITFNGNAMGWYRQAPGKERELVAAITRTGTDTSYADSVKGRFTISRDNAKNTVYLQMNSLKPEDTAVYYCAAPPYNGYRYGTTGYYWGQGTQVTVSS | low polyreactivity
QVQLVESGGGLVQAGGSLRLSCAASGITFNPNAMGWYRQAPGKERELVAVITYRGGSTYYADSVMGRFTISRDNAKNTVYLQMNSLKPADTAVYYCAAQYIGWHLYWYDYWGQGTQVTVSS | low polyreactivity
QVQLVESGGGLVQAGGSLRLSCAASGITFNYYAMGWYRQAPGKERELVAAISLSGGRTRYADSVKGRFTISRDNAKNTVYLQMNSLKPEDTAVYYCAAYSFRYVPWPDGMGYWGQGTQVTVSS | high polyreactivity
QVQLVESGGGLVQAGGSLRLSCAASGITFNYYAMGWYRQAPGKERELVAAISWSGDRTYYADTVKGRFTISRDNAKYTVYLQMNSLKPEDTAVYYCAAKSVGEGDYWGQGTQVTVSS | low polyreactivity
QVQLVESGGGLVQAGGSLRLSCAASGITFPDNAMGWSRQAPGKERELVAAITYSGGSTYYADSVKGRFTISRDNAKNTVYLQMNSLKPEDTAVYYCAADWYWSSSYSDWEDYWGQGTQVTVSS | low polyreactivity
QVQLVESGGGLVQAGGSLRLSCAASGITFPGNAMGWYRQAPGKERELVAVISFGDGGTYYADSVKGRFTISRDNAKNTVYLQMNSLKPEDTAVYYCATDYQSTSVWGGHFVINPYDYWGQGTQVTVSS | low polyreactivity
QVQLVESGGGLVQAGGSLRLSCAASGITFPGYAMGWYRQAPGKERELVAVIRKSGTSTGGNTYYADSVKGRFTISRDNAKNTVYLQMNSLKPEDTAVYYCAKKYVWTHNYWGQGTQVTVSS | low polyreactivity

Source: the nanobody polyreactivity screen of Harvey et al. (2022)
